Literature values, collected in patent US20180022822A1, “NOVEL ANTI-FIBROBLAST ACTIVATION PROTEIN (FAP) BINDING AGENTS AND USES THEREOF” (Mabimmune Diagnostics AG, priority 2016, published 2018).

Tests used:
[1] = pH 7.8
[2] = in vivo

In the case of `CC(C)[C@H](N)C(=O)N1CCC[C@H]1B(O)O` [Talabostat, Val-boroPro], the “stability of inhibitory activity” value [1] is given as “rapidly loses inhibitory activity”.
In the case of “Sibrotuzumab: humanized version of the F19 antibody that specifically binds to human FAP”, the “patients with change in pharmacokinetics and reduced tumor uptake” value ([2]; human) is listed as 4 of 26 and the “patients who developed human-anti-human antibodies (HAHA)” value [2] is listed as 8 of 26.
